Assay [1] concerns the target T1, human TIGIT on CHO cells (human, UniProt Q495A1).
T1 chain: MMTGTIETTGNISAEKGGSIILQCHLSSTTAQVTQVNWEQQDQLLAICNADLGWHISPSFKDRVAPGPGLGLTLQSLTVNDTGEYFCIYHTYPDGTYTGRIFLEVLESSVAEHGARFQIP
Nature of the assay: competition, CD155 blocking FACS.

Assay [2] addresses T1, human TIGIT on CHO cells. The experiment in a line: FACS. On the technique in general: In flow cytometry, cells or beads pass a laser one at a time.
Another assay addresses T2, human TIGIT-Fc (human, UniProt Q495A1).
T2 chain: T1 chain
Nature of the assay: BLI.

Assay [3] concerns the target T1, human TIGIT on CHO cells. The experiment in a line: competition, CD155 blocking FACS.
Assay [4] addresses T1, human TIGIT on CHO cells. Nature of the assay: FACS, CHO-expressed antibody.
For another assay, the target named is monkey TIGIT-his (monkey). Nature of the assay: BLI. On the technique in general: Biolayer interferometry detects binding as a change in optical thickness at a sensor tip.
Sequence of monkey TIGIT-his (monkey) (Q495A1 other isoform, or with tags, fused parts or gaps): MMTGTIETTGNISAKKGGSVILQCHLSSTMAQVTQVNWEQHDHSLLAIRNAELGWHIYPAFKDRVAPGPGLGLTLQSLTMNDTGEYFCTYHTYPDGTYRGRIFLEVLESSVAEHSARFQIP
The target in another assay is T3, mouse TIGIT-his (mouse, UniProt P86176).
T3 chain: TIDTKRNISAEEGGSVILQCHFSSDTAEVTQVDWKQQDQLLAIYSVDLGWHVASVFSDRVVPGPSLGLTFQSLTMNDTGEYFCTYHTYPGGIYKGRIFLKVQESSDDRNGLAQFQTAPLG
Nature of the assay: BLI.

For the next assay, the target named is T4, human TIGIT-his (human, UniProt Q495A1).
T4 chain: T1 chain
The experiment in a line: BLI.

The source of these data is patent publication US11370837 (dated 2022).

Where a chain is given by its changes, count along the chain named. Read-outs that look alike come from different tables or passages of the source.

B1: ADI-30311 (antibody, V domains shown)
VH: QLQLQESGPGLVKPSETLSLTCTVSGGSIASSVYYWGWIRQPPGKGLEWIGSIYYSGSTWYNPSLKSRVTISVDTSKNQFSLKLSSVTAADTAVYYCAREAGRTGTGLLFDYWGQGTLVTVSS
VL: DIQMTQSPSTLSASVGDRVTITCRASQSISSWLAWYQQKPGKAPKLLIYKASSLESGVPSRFSGSGSGTEFTLTISSLQPDDFATYYCQQYGILPRTFGGGTKVEIK
In general, IC50 refers to the concentration that inhibits the measured activity by half. By EC50 is commonly meant the concentration that produces a half-maximal response. In the assay with human TIGIT on CHO cells [1], B1 came in with an IC50 of 0.531 nM. In the assay with human TIGIT on CHO cells [2], the EC50 came out at 0.757 nM.

B2: ADI-27301 (antibody, V domains shown)
VH: B1 VH with A30S, V33S, W60Y, T104G, G105T
VL: B1 VL
In turn, B2 displayed an IC50 with human TIGIT on CHO cells [1] of 0.641 nM. In the assay with human TIGIT on CHO cells [2], this molecule gave a concentration for a half-maximal effect (EC50) of 0.899 nM.

B3: ADI-27297 Fab (antibody, V domains shown)
VH: QVQLVQSGAEVKKPGASVKVSCKASGYTFTSYYMHWVRQAPGQGLEWMGIINPSGGSTSYAQKFQGRVTMTRDTSTSTVYMELSSLRSEDTAVYYCARDHDIAAAGRLADYWGQGTLVTVSS
VL: DIQMTQSPSSVSASVGDRVTITCRASQGISSWLAWYQQKPGKAPKLLISAASSLQSGVPSRFSGSGSGTDFTLTISSLQPEDFATYYCQQAVILPITFGGGTKVEIK
Usually Kd stands for the constant that tells how readily two partners part at equilibrium. With B3, in the assay with human TIGIT-Fc, binding was characterised by a dissociation constant (Kd) of 32.1 nM.

B4: ADI-27297 (antibody, V domains shown)
VH: B3 VH
VL: B3 VL
Take B4: the half-maximal inhibitory concentration (IC50) in the assay with human TIGIT on CHO cells [1] was 0.603 nM. The same molecule registered an EC50 with human TIGIT on CHO cells [2] of 0.496 nM.

B5: ADI-30293 (antibody, V domains shown)
VH: EVQLVESGGGLVQPGGSLRLSCAASGFTFSSYSMNWVRQAPGKGLEWVSYISSSGTINYADSVKGRFTISRDNAKNSLYLQMNSLRAEDTAVYYCARHRIADSPSRAFDIWGQGTMVTVSS
VL: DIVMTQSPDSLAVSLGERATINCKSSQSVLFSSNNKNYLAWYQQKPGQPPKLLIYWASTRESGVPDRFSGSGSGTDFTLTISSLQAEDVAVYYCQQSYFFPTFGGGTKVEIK
For B5, the half-maximal inhibitory concentration (IC50) with human TIGIT on CHO cells [3] was 0.251 nM; with human TIGIT on CHO cells [1] it was 0.859 nM. The results for the concentration giving a half-maximal response (EC50) with human TIGIT on CHO cells [4] and with human TIGIT on CHO cells [2] were 0.229 nM and 0.9 nM, respectively. Moreover, the Kd came to 34.9 nM with monkey TIGIT-his, 13 nM with mouse TIGIT-his and 0.789 nM with human TIGIT-his.

B6: ADI-30296 (antibody, V domains shown)
VH: B5 VH with F29I, S30G, S31G, G55S, N58H, A101G, D102R
VL: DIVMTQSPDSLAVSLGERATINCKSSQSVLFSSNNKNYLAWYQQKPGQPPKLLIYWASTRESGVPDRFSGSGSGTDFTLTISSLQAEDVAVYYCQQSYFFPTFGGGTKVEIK
In the assay with human TIGIT on CHO cells [1], B6 came in with an IC50 of 0.278 nM. In the assay with human TIGIT on CHO cells [2], this molecule returned an EC50 of 0.371 nM.

B7: ADI-30296 Fab (antibody, V domains shown)
VH: B5 VH with F29I, S30G, S31G, G55S, N58H, A101G, D102R
VL: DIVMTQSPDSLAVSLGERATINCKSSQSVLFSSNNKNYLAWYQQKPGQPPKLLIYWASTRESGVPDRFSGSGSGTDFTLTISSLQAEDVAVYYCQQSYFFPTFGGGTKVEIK
As to B7, the affinity with human TIGIT-Fc, expressed as Kd, was 2.43 nM.

B8: ADI-30286 (antibody, V domains shown)
VH: EVQLLESGGGLVQPGGSLRLSCAASGFTFGPYGMSWVRQAPGKGLEWVSAISGSGASTWYADSVKGRFTISRDNSKNTLYLQMNSLRAEDTAVYYCAKDPGTHYSGYYYIWRYWGQGTLVTVSS
VL: EIVMTQSPATLSVSPGERATLSCRASQSVSSNLAWYQQKPGQAPRLLIYSASTRATGIPARFSGSGSGTEFTLTISSLQSEDFAVYYCQQYVPHPPFTFGGGTKVEIK
Take B8: the IC50 in the assay with human TIGIT on CHO cells [3] worked out at 0.189 nM; with human TIGIT on CHO cells [1] it was 0.296 nM. Also, the EC50 is 0.176 nM with human TIGIT on CHO cells [4] and 0.446 nM with human TIGIT on CHO cells [2]. Moreover, the Kd worked out at 10.6 nM with monkey TIGIT-his, 134 nM with mouse TIGIT-his and 1.76 nM with human TIGIT-his.

B9: ADI-27291 (antibody, V domains shown)
VH: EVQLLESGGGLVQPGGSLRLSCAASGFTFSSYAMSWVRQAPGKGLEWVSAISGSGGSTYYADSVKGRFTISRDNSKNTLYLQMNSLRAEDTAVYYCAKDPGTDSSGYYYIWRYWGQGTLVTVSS
VL: B8 VL
In turn, B9 returned an IC50 in the assay with human TIGIT on CHO cells [1] of 1.61 nM. In addition, in the assay with human TIGIT on CHO cells [2], the EC50 came out at 0.852 nM.

B10: ADI-30288 (antibody, V domains shown)
VH: B8 VH with Y60H, H103D, Y104S, S105T
VL: B8 VL
As for B10, the figures for the IC50 in the assay with human TIGIT on CHO cells [3] and with human TIGIT on CHO cells [1] were 0.224 nM and 0.668 nM, respectively. Moreover, the EC50 with human TIGIT on CHO cells [4] was determined as 0.186 nM; with human TIGIT on CHO cells [2], 0.475 nM. For the same molecule, the figures for the Kd in the assay with monkey TIGIT-his, with mouse TIGIT-his and with human TIGIT-his were 7.19 nM, 5.7 nM and 1.31 nM, respectively.

B11: ADI-30302 (antibody, V domains shown)
VH: QLQLQESGPGLVKPSETLSLTCTVSGGSIGSSQYYWGWIRQPPGKGLEWIGSIYRSGGTYYNPSLKSRVTISVDTSKNQFSLKLSSVTAADTAVYYCARDGLYHTPEYFQHWGQGTLVTVSS
VL: EIVLTQSPATLSLSPGERATLSCRASQSVSSYLAWYQQKPGQAPRLLIYDASNRATGIPARFSGSGSGTDFTLTISSLEPEDFAVYYCQQRFAFPYTFGGGTKVEIK
In the assay with human TIGIT on CHO cells [1], B11 returned an IC50 of 0.281 nM. In the assay with human TIGIT on CHO cells [2], the EC50 worked out at 0.326 nM.

B12: ADI-27243 (antibody, V domains shown)
VH: B11 VH with G30S, Q33R, R55Y, G58S
VL: B11 VL
Regarding B12, the IC50 with human TIGIT on CHO cells [1] was found to be 0.819 nM. The same molecule came in with an EC50 with human TIGIT on CHO cells [2] of 0.587 nM.

B13: ADI-30268 (antibody, V domains shown)
VH: QVQLVQSGAEVKKPGASVKVSCKASGYTFGSYYMGWVRQAPGQGLEWMGIIDPSGGRTSYARKFQGRVTMTRDTSTSTVYMELSSLRSEDTAVYYCARARTPSSWPYGMDVWGQGTTVTVSS
VL: DIQMTQSPSSLSASVGDRVTITCRASQSINSYLNWYQQKPGKAPKLLIYAASSLQSGVPSRFSGSGSGTDFTLTISSLQPEDFATYYCQQSLLTPFTFGGGTKVEIK
As to B13, the IC50 amounted to 0.14 nM with human TIGIT on CHO cells [3] and 0.221 nM with human TIGIT on CHO cells [1]. In addition, the EC50 worked out at 0.139 nM in the assay with human TIGIT on CHO cells [4] and 0.329 nM in the assay with human TIGIT on CHO cells [2]. Also, the dissociation constant Kd with monkey TIGIT-his amounted to 62.3 nM; with mouse TIGIT-his, 46.4 nM; with human TIGIT-his, 3.29 nM.

B14: ADI-30267 Fab (antibody, V domains shown)
VH: B13 VH with G30R, G35S, Y60F, R62Q, T101Y, S103E
VL: B13 VL
B14 showed a Kd with human TIGIT-Fc of 1.66 nM.

B15: ADI-30267 (antibody, V domains shown)
VH: B13 VH with G30R, G35S, Y60F, R62Q, T101Y, S103E
VL: B13 VL
As for B15, the IC50 with human TIGIT on CHO cells [1] stood at 0.278 nM. In the assay with human TIGIT on CHO cells [2], this molecule yielded an EC50 of 0.74 nM.

B16: ADI-27238 (antibody, V domains shown)
VH: B13 VH with G30T, G35S, D52N, R57S, R62Q, T101Y
VL: B13 VL
With B16, in the assay with human TIGIT on CHO cells [1], the IC50 was determined as 0.418 nM. The same molecule registered an EC50 with human TIGIT on CHO cells [2] of 0.751 nM.

B17: ADI-27278 (antibody, V domains shown)
VH: EVQLVESGGGLVQPGGSLRLSCAASGFTFSSYSMNWVRQAPGKGLEWVSYISGSSSTIYYADSVKGRFTISRDNAKNSLYLQMNSLRAEDTAVYYCARHRIADSPSRAFDIWGQGTMVTVSS
VL: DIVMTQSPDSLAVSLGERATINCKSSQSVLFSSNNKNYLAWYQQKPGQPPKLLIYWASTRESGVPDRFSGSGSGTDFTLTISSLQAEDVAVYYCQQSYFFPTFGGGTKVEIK
B17 registered an IC50 in the assay with human TIGIT on CHO cells [1] of 0.586 nM. For the same molecule, the EC50 in the assay with human TIGIT on CHO cells [2] came out at 0.968 nM.
